The values below come from patent publication WO2012132067A1 (dated 2012).

One test deals with T1, human FcγRIIa(R) (human, UniProt P12318 36-217).
T1 construct: also called hFcgRIIa(R); FcγRIIa R type
T1 chain: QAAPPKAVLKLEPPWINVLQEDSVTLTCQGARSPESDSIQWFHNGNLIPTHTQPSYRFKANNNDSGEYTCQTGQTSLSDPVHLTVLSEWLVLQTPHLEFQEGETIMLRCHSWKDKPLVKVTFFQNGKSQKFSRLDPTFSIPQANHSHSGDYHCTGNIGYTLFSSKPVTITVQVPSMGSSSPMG
As to the kind of experiment: Biacore T100, Protein A capture, 25 C; against IgG1 (IL6R-G1d); the Japanese text says improved 522-fold. (In general: Surface plasmon resonance follows binding to a sensor surface in real time, without labels.)

Test [1] addresses T2, human FcγRIIb (human, UniProt P31994 43-217, limits assumed).
T2 construct: also called hFcgRIIb
T2 sequence: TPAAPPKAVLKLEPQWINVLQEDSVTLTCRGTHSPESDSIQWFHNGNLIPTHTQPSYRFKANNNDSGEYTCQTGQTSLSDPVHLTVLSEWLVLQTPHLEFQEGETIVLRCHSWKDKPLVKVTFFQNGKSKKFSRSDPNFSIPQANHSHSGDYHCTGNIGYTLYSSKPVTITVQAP
In words: Biacore T100, Protein A capture, 25 C; against IgG1 (IL6R-G1d).

The next test deals with T3, human FcγRIIa(H) (human, UniProt P12318 36-217).
T3 construct: also called hFcgRIIa(H); FcγRIIa H type
T3 sequence: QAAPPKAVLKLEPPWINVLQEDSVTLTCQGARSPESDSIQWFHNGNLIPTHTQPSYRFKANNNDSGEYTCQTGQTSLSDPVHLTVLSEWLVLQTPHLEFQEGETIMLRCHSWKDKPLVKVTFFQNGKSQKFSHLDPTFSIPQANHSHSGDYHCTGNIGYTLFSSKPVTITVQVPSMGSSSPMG
The description is as above.

Test [2] deals with T4, human FcRn (human, UniProt P55899 24-290; P61769 21-119, limits assumed).
T4 construct: also called hFcRn
T4 sequence (P55899 24-290 limits assumed, chain 1 of 2): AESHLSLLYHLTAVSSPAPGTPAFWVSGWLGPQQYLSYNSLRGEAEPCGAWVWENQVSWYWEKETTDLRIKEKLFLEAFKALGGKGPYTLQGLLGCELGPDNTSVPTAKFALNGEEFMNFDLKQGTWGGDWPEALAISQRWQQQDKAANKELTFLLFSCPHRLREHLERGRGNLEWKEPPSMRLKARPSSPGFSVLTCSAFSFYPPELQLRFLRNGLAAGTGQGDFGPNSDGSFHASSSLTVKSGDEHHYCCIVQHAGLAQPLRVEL
T4 sequence (P61769 21-119 limits assumed, chain 2 of 2): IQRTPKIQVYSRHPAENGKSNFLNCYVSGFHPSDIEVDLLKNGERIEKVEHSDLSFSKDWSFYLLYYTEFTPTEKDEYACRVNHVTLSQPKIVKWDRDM
As to the kind of experiment: Biacore, human FcRn, pH 7.0 (Table 20 not given).

Test [3] deals with T2, human FcγRIIb. As to the kind of experiment: Biacore T100, Protein L capture, FcγR injected, pH 7.4, 25 C (Table 19 not given).
Test [4] concerns the target T4, human FcRn. As to the kind of experiment: Biacore, Protein L capture, human FcRn injected, pH 7.0 (Table 6 not given).
The target in test [5] is T5, soluble human IL-6 receptor (human, UniProt P08887 20-357).
T5 construct: The stated range 1-357 is that of the expressed construct; also called hsIL-6R
T5 sequence: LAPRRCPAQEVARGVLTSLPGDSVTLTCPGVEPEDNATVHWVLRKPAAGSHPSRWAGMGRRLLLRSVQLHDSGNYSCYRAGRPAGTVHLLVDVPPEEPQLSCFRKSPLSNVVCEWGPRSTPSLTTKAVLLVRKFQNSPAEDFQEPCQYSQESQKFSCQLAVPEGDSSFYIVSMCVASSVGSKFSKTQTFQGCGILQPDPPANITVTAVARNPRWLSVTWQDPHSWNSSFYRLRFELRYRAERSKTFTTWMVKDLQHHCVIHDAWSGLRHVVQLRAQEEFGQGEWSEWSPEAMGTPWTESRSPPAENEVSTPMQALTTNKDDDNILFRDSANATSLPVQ
In words: summary of the Biacore result of Reference Example 7, told in Reference Example 12.

For a further test, the target named is T6, mouse FcγRIII (mouse, UniProt P08508 31-215).
T6 sequence (looked up): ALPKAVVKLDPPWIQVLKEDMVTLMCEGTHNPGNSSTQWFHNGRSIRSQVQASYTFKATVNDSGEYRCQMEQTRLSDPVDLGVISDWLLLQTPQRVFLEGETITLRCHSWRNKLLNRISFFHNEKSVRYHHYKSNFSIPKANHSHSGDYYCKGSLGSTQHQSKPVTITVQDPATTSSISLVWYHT
In words: SPR (Biacore), antibody held on immobilised mouse FcRn, FcγR injected, pH 7.4, 25 C.

In the next test the target is T7, mouse FcγRIIb (mouse, UniProt P08101 30-210, limits assumed).
T7 sequence (looked up): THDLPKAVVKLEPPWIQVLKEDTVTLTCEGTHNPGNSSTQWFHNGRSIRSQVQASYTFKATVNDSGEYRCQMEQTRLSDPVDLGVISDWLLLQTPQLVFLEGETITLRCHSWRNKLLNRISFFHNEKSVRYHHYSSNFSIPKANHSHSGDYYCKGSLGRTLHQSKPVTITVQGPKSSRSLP
Described as above.

For another test, the target named is T8, mouse FcγRI (mouse, UniProt P26151 25-297).
T8 sequence (looked up): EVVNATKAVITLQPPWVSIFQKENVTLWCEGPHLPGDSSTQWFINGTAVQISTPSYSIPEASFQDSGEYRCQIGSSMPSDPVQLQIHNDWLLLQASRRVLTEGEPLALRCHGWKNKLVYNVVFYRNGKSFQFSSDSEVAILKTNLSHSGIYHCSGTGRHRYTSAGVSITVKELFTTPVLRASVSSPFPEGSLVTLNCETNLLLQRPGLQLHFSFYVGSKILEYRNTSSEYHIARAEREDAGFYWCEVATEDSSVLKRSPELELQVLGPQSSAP
The test is described as above.

B1: IgG1-v3 (IL6R-G1d_v3/IL6R-L) (antibody)
heavy: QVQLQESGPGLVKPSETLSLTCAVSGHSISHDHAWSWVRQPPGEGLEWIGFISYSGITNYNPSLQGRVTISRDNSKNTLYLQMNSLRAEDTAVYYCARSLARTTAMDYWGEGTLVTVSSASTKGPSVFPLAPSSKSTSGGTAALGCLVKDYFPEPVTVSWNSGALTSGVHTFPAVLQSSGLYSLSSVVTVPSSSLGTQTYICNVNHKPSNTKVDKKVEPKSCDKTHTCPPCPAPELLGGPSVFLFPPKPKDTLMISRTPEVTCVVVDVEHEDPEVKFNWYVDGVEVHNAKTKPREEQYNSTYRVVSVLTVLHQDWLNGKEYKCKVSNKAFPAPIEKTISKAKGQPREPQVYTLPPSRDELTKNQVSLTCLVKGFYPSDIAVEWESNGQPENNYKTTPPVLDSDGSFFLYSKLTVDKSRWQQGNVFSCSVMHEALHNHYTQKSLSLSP
light: DIQMTQSPSSLSASVGDRVTITCRASQDISSYLNWYQQKPGKAPKLLIYYTSRLHSGVPSRFSGSGSGTDFTFTISSLQPEDIATYYCQQGNTLPYTFGQGTKVEIK
notes: IL6R-G1d with S267E/L328F (EU), known mutation used for comparison; copies: 2 + 2
With B1, the “relative KD (KD of IgG1 divided by KD of the variant)” value with human FcγRIIa(R) worked out at 522 fold; with human FcγRIIb [1], 408 fold; with human FcγRIIa(H) it was 0.51 fold.

B2: VH3/L(WT)-IgG1-F652 (antibody)
heavy: QVQLQESGPGLVKPSETLSLTCAVSGHSISHDHAWSWVRQPPGEGLEWIGFISYSGITNYNPSLQGRVTISRDNSKNTLYLQMNSLRAEDTAVYYCARSLARTTAMDYWGEGTLVTVSSASTKGPSVFPLAPSSKSTSGGTAALGCLVKDYFPEPVTVSWNSGALTSGVHTFPAVLQSSGLYSLSSVVTVPSSSLGTQTYICNVNHKPSNTKVDKKVEPKSCDKTHTCPPCPAPELLGGDSVFLFPPKPKDTLYISRTPEVTCVVVDVSHEDPEVKFNWYVDGVEVHNAKTKPREEQYNSTYRVVSVLTVLHQDWLNGKEYKCKVSNKALPAPIEKTISKAKGQPREPQVYTLPPSRDELTKNQVSLTCLVKGFYPSDIAVEWESNGQPENNYKTTPPVLDSDGSFFLYSKLTVDKSRWQQGNVFSCSVMHEALHYHYTQKSLSLSP
light: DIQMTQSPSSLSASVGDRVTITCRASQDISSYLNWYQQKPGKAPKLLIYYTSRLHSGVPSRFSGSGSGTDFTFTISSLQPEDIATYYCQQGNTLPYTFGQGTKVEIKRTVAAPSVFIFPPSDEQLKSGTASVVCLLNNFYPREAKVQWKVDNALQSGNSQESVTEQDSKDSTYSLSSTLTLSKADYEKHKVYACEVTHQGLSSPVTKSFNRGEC
notes: VH3-IgG1-F11 with P238D (EU); copies: 2 + 2
As to B2, the binding result with human FcRn [2] and with human FcγRIIb [3] was “binds” in each case.

B3: VH3/L(WT)-IgG1-F21 (antibody)
heavy: QVQLQESGPGLVKPSETLSLTCAVSGHSISHDHAWSWVRQPPGEGLEWIGFISYSGITNYNPSLQGRVTISRDNSKNTLYLQMNSLRAEDTAVYYCARSLARTTAMDYWGEGTLVTVSSASTKGPSVFPLAPSSKSTSGGTAALGCLVKDYFPEPVTVSWNSGALTSGVHTFPAVLQSSGLYSLSSVVTVPSSSLGTQTYICNVNHKPSNTKVDKKVEPKSCDKTHTCPPCPAPELLGGPSVFLFPPKPKDTLYISRTPEVTCVVVDVSHEDPEVKFNWYVDGVEVHNAKTKPREEQYNSTYRVVSVLTPLHQDWLNGKEYKCKVSNKALPAPIEKTISKAKGQPREPQVYTLPPSRDELTKNQVSLTCLVKGFYPSDIAVEWESNGQPENNYKTTPPVLDSDGSFFLYSKLTVDKSRWQQGNVFSCSVMHEALHYHYTQKSLSLSP
light: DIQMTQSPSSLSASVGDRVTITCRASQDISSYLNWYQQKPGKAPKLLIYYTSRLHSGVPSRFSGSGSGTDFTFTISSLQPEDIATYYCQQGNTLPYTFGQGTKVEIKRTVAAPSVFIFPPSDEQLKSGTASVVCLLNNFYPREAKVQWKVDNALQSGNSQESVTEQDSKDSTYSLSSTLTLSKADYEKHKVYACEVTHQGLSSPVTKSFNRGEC
notes: Measured with light chain L(WT)-CK; result sentences name it Fv4-IgG1-F21; also called Fv4-IgG1-F21; copies: 2 + 2
Consider B3, for which the binding result with human FcRn [4] was “binds”.

B4: VH3/L(WT)-IgG1-F157 (antibody)
heavy: QVQLQESGPGLVKPSETLSLTCAVSGHSISHDHAWSWVRQPPGEGLEWIGFISYSGITNYNPSLQGRVTISRDNSKNTLYLQMNSLRAEDTAVYYCARSLARTTAMDYWGEGTLVTVSSASTKGPSVFPLAPSSKSTSGGTAALGCLVKDYFPEPVTVSWNSGALTSGVHTFPAVLQSSGLYSLSSVVTVPSSSLGTQTYICNVNHKPSNTKVDKKVEPKSCDKTHTCPPCPAPELLGGPSVFLFPPKPKDTLMISRTAEVTCVVVDVSHEDPEVKFNWYVDGVEVHNAKTKPREEQYNSTYRVVSVLTPLHQDWLNGKEYKCKVSNKALPAPIEKTISKAKGQPREPQVYTLPPSRDELTKNQVSLTCLVKGFYPSDIAVEWESNGQPENNYKTTPPVLDSDGSFFLYSKLTVDKSRWQQGNVFSCSVLHEALHYHYTQKSLSLSP
light: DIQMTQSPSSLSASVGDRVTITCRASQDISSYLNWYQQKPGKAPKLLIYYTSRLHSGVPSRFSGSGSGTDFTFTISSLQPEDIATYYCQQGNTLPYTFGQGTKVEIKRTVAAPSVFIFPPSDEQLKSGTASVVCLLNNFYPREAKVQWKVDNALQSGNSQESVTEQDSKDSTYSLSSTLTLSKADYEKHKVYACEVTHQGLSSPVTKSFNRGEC
notes: also called Fv4-IgG1-F157 (name in result sentence); copies: 2 + 2
For the molecule B4, in the test with human FcRn [4], the binding result is recorded as “binds”.

B5: 6RL#9-IgG1 (antibody, V domains shown, not shown: a dimerising Fc or GST)
VH: QVQLVQSGAEVKKPGASVKVSCKASGYTFTSYYMHWVRQAPGQGLEWMGIINPSGGSTSYAQKFQGRVTMTRDTSTSTVYMELSSLRSEDTAVYYCARDDPGGGEYYFDYWGQGTLVTVSS
VL: QSVLTQPPSVSGAPGQRVTISCTGSRSNMGAGYDVHWYQLLPGAAPKLLISHNTHRPSGVPDRFSGSKSGASASLAITGLQAEDEADYYCQSHDSSLSAVVFGGGTKLTVLS
notes: Ca-dependent anti-human IL-6 receptor antibody from a naive human phage library; also called 6RL#9 antibody
On to B5, for which, in test [5], the “Ca-dependence of binding (fold)” value is no less than 100 fold.

B6: mPM1-mIgG1-mF3 (antibody)
heavy: DVQLQESGPVLVKPSQSLSLTCTVTGYSITSDHAWSWIRQFPGNKLEWMGYISYSGITTYNPSLKSRISITRDTSKNQFFLQLNSVTTGDTSTYYCARSLARTTAMDYWGQGTSVTVSSAKTTPPSVYPLAPGSAAQTNSMVTLGCLVKGYFPEPVTVTWNSGSLSSGVHTFPAVLQSDLYTLSSSVTVPSSTWPSETVTCNVAHPASSTKVDKKIVPRDCGCKPCICTVPEVSSVFIFPPKPKDVLYITLEPKVTCVVVDISKDDPEVQFSWFVDDVEVHTAQTQPREEQFNSTFRSVSELPIMHQDWLNGKEFKCRVNSAAFPAPIEKTISKTKGRPKAPQVYTIPPPKEQMAKDKVSLTCMITDFFPEDITVEWQWNGQPAENYKNTQPIMDTDGSYFVYSKLNVQKSNWEAGNTFTCSVLHEGLKFHHTEKSLSHSPGK
light: DIQMTQTTSSLSASLGDRVTISCRASQDISSYLNWYQQKPDGTIKLLIYYTSRLHSGVPSRFSGSGSGTDYSLTINNLEQEDIATYFCQQGNTLPYTFGGGTKLEIKRADAAPTVSIFPPSSEQLTSGGASVVCFLNNFYPKDINVKWKIDGSERQNGVLNSWTDQDSKDSTYSMSSTLTLTKDEYERHNSYTCEATHKTSTSPIVKSFNRNEC
notes: Mouse IgG1 anti-human IL-6R antibody of mPM1H-mIgG1-mF3 and mPM1L-mk1; copies: 2 + 2
In the case of B6, the binding result is recorded as “binds” with mouse FcγRIII, “binds” with mouse FcγRIIb and “no binding” with mouse FcγRI.

B7: FH4-IgG1 (antibody, V domains shown)
VH: QVQLVQSGAEVKKPGSSVKVSCKASGGTFSSYAISWVRQAPGQGLEWMGGIIPIFGTANYAQKFQGRVTITADESTSTAYMELSSLRSEDTAVYYCARERDYYDSSGYYDAFDIWGQGTMVTVSS
VL: ETTVTQSPSFLSASVGDRVTITCITTTDIDDDMNWFQQEPGKAPKLLISEGNILRPGVPSRFSSSGYGTDFTLTISKLQPEDFATYYCLQSDNLPFTFGQGTKLEIKR
notes: Ca-dependent anti-human IL-6 receptor antibody from a naive human phage library
Consider B7, for which, in test [5], the “Ca-dependence of binding (fold)” value was no less than 100 fold.

B8: Fv4-IgG1-F20 (antibody)
heavy: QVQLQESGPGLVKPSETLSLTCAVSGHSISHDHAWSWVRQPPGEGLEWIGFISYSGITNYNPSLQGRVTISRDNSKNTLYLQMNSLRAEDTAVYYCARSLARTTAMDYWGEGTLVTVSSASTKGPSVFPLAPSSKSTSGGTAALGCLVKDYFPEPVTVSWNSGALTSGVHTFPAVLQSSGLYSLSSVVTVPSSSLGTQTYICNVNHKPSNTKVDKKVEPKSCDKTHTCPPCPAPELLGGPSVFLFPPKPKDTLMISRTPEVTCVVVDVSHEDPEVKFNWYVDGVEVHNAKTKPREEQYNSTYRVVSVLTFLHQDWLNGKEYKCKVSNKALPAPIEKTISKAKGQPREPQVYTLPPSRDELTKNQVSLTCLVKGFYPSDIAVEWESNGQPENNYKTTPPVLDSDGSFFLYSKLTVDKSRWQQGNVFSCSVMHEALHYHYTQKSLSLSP
light: DIQMTQSPSSLSASVGDSVTITCQASTDISSHLNWYQQKPGKAPELLIYYGSHLLSGVPSRFSGSGSGTDFTFTISSLEAEDAATYYCGQGNRLPYTFGQGTKVEIERTVAAPSVFIFPPSDEQLKSGTASVVCLLNNFYPREAKVQWKVDNALQSGNSQESVTEQDSKDSTYSLSSTLTLSKADYEKHKVYACEVTHQGLSSPVTKSFNRGEC
notes: VH3-IgG1-F20 with VL3-CK; copies: 2 + 2
B8: the binding result in the test with mouse FcγRIII, in the test with mouse FcγRIIb and in the test with mouse FcγRI was “binds” in each case.
